Test results from patent US20230348600A1 (INHIBRX, published 2023).

Key:
[1] = target: T1, human CD28 (full-length, cell surface) (human, UniProt P10747 19-220); experiment: flow cytometry, titration of sdAb-hFc on HEK293FS cells transiently transfected with full-length human CD28; Alexa Fluor 647 anti-human IgG
T1 construct: On HEK293FS cells transiently transfected with full-length human CD28, or endogenous on Jurkat cells and primary human T cells; also called hCD28; cluster of differentiation 28
Protocol: HEK293FS transiently transfected with full-length human CD28 or cynomolgus CD28 were used as CD28-positive cells. Untransfected HEK293FS cells were used as CD28-negative cells. Cells were seeded in 96-well round-bottom plates at 3×10³ cells/well in FACS buffer. The exemplary generated sdAb-hFcs were titrated onto cells and assay plates were incubated for 30 minutes at 4° C. […] Assay plates were incubated for 30 minutes at 4° C. and then cells were washed two times with FACS buffer and resuspended in FACS buffer for analysis using an Intellicyt iQue®.

[2] = target: T1, human CD28 (full-length, cell surface); experiment: flow cytometry, titration on Jurkat cells (5T4-/PDL1-/CD28+)
[3] = target: T1, human CD28 (full-length, cell surface); experiment: flow cytometry, titration on Jurkat cells (endogenous CD28)
[4] = target: T1, human CD28 (full-length, cell surface); experiment: flow cytometry on Jurkat cells and primary T cells enriched from PBMCs (endogenous CD28)

B1: 2F11 CD28 sdAb formatted with human IgG1 Fc (sdAb-hFc) (Fc fusion)
chain: QVQLQQSGGGLVQAGGSLRLSCVASGISFNVVDMDWHRQAPGKERELVAGITRGGATYYADSVKGRFTISRDNAKNSAYLQLANLKPEDTAVYYCNARWPSRYQNYWGQGTQVTVKPPAPELLGGPSVFLFPPKPKDTLMISRTPEVTCVVVDVSHEDPEVKFNWYVDGVEVHNAKTKPREEQYNSTYRVVSVLTVLHQDWLNGKEYKCKVSNKALPAPIEKTISKAKGQPREPQVYTLPPSRDELTKNQVSLTCLVKGFYPSDIAVEWESNGQPENNYKTTPPVLDSDGSFFLYSKLTVDKSRWQQGNVFSCSVMHEALHNHYTQKSLSLSPGK
notes: Bivalent sdAb-IgG1 homodimer; I treated them as the same clone; also called 2F11 sdAb-IgG1
binding result [1]: binds

B2: cx694 (PDL1xCD28 bispecific construct) (bispecific antibody)
chain: EVQLLESGGGEVQPGGSLRLSCAASGGIFAIKPISWYRQAPGKQREWVSTTTSSGATNYAESVKGRFTISRDNAKNTLYLQMSSLRAEDTAVYYCNVFEYWGQGTLVTVKPGGSGGGGSEVQLVQSGGGLVQTGGSLRLSCAASGRMFSNYAMGWFRQAPGKEREFVAAINYRRDSADYADSVKGRFTISRDNAKNTVYLEMNSLKPEDTAIYYCGFTYAGWASSRRDDYNYWGQGTQVTVKPPAPGGPSVFLFPPKPKDTLMISRTPEVTCVVVDVSHEDPEVKFNWYVDGVEVHNAKTKPREEQYNSTYRVVSVLTVLHQDWLNGKEYKCKVSNKALPAPIEKTISKAKGQPREPQVYTLPPSRDELTKNQVSLTCLVKGFYPSDIAVEWESNGQPENNYKTTPPVLDSDGSFFLYSKLTVDKSRWQQGNVFSCSVMHEALHNHYTQKSLSLSPGK
notes: also called PDL1xCD28 bispecific protein
binding result [2]: no binding

B3: cx8370 (PDL1xCD28 bispecific construct) (bispecific antibody)
chain: EVQLLESGGGEVQPGGSLRLSCAASGGIFAIKPISWYRQAPGKQREWVSTTTSSGATNYAESVKGRFTISRDNAKNTLYLQMSSLRAEDTAVYYCNVFEYWGQGTLVTVKPGGSGGSEVQLVQSGGGLVQTGGSLRLSCAASGRMFSNYAMGWFRQAPGKEREFVAAINYRRDSADYADSVKGRFTISRDNAKNTVYLEMNSLKPEDTAIYYCGFTYAGWASSRRDDYNYWGQGTQVTVKPPAPGGPSVFLFPPKPKDTLMISRTPEVTCVVVDVSHEDPEVKFNWYVDGVEVHNAKTKPREEQYNSTYRVVSVLTVLHQDWLNGKEYKCKVSNKALPAPIEKTISKAKGQPREPQVYTLPPSRDELTKNQVSLTCLVKGFYPSDIAVEWESNGQPENNYKTTPPVLDSDGSFFLYSKLTVDKSRWQQGNVFSCSVMHEALHNHYTQKSLSLSPGK
binding result [2]: no binding

B4: cx984 (CD28 monospecific construct) (Fc fusion)
chain: EVQLVQSGGGLVQTGGSLRLSCAASGRMFSNYAMGWFRQAPGKEREFVAAINYRRDSADYADSVKGRFTISRDNAKNTVYLEMNSLKPEDTAIYYCGFTYAGWASSRRDDYNYWGQGTQVTVKPPAPGGPSVFLFPPKPKDTLMISRTPEVTCVVVDVSHEDPEVKFNWYVDGVEVHNAKTKPREEQYNSTYRVVSVLTVLHQDWLNGKEYKCKVSNKALPAPIEKTISKAKGQPREPQVYTLPPSRDELTKNQVSLTCLVKGFYPSDIAVEWESNGQPENNYKTTPPVLDSDGSFFLYSKLTVDKSRWQQGNVFSCSVMHEALHNHYTQKSLSLSPGK
notes: Homodimer of two identical chains; also called monospecific, bivalent CD28 sdAb cx984
binding result [3]: binds

B5: 1C9-xELL (1C9 CD28 sdAb formatted with variant human IgG1 Fc xELL) (Fc fusion)
chain: B4 chain
notes: also called 1C9 sdAb-xELL
binding result [4]: binds

B6: 1G7 CD28 sdAb formatted with human IgG1 Fc (sdAb-hFc) (Fc fusion)
chain: EVQLVQSGGALVQAGGSLRLSCVAPRTIGLISLMGWYRQAPGKQRELVATIIASGRTNYAESVKDRFTISRDNAENKVYLQVNSLKPEDTAVYYCRVNAETAPWSRRGFWGQGTQVTVKPPAPELLGGPSVFLFPPKPKDTLMISRTPEVTCVVVDVSHEDPEVKFNWYVDGVEVHNAKTKPREEQYNSTYRVVSVLTVLHQDWLNGKEYKCKVSNKALPAPIEKTISKAKGQPREPQVYTLPPSRDELTKNQVSLTCLVKGFYPSDIAVEWESNGQPENNYKTTPPVLDSDGSFFLYSKLTVDKSRWQQGNVFSCSVMHEALHNHYTQKSLSLSPGK
notes: also called 1G7 sdAb-IgG1
binding result [1]: binds

B7: 1C9 CD28 sdAb formatted with human IgG1 Fc (sdAb-hFc) (Fc fusion)
chain: EVQLVQSGGGLVQTGGSLRLSCAASGRMFSNYAMGWFRQAPGKEREFVAAINYRRDSADYADSVKGRFTISRDNAKNTVYLEMNSLKPEDTAIYYCGFTYAGWASSRRDDYNYWGQGTQVTVKPPAPELLGGPSVFLFPPKPKDTLMISRTPEVTCVVVDVSHEDPEVKFNWYVDGVEVHNAKTKPREEQYNSTYRVVSVLTVLHQDWLNGKEYKCKVSNKALPAPIEKTISKAKGQPREPQVYTLPPSRDELTKNQVSLTCLVKGFYPSDIAVEWESNGQPENNYKTTPPVLDSDGSFFLYSKLTVDKSRWQQGNVFSCSVMHEALHNHYTQKSLSLSPGK
notes: Bivalent sdAb-IgG1 homodimer; also called 1C9-IgG1; 1C9 sdAb-IgG1
binding result [1]: binds
